The values that follow come from paper PMC3031242, “A novel neuron-enriched protein SDIM1 is down regulated in Alzheimer's brains and attenuates cell death induced by DNAJB4 over-expression in neuro-progenitor cells” (Molecular Neurodegeneration, 2011).

This series deals with the molecule itself. As to the kind of experiment: dimer-sized band on SDS-PAGE and Western blot; purified GST-SDIM1 (Coomassie and anti-SDIM1 blot, Figure 3A; anti-GST blot of the anti-GST immunoprecipitate, Figure 3D left panel lane 4).

B1: GST-SDIM1 fusion protein (domain or fragment, human, UniProt Q6ZPB5 27-146, looked up)
chain: AGPSPGARTTLGSPLSLWSIKTPSHIFCTRRAINLGFPSPPLVQLIFWSLNAGLDLYLCLISSCGFSQVFWPVEAFCSFSLSFFALALSHKFVICRLDQHIFSGFTKSLKNLPPCHRTDI
notes: first residue C27 mutated to A to increase solubility in E. coli; Cloned into pGEX-3X; GST itself is known to dimerise; also called recombinant GST-SDIM1; SDIM1-GST fusion protein; source: E. coli Rosetta cells, purified (glutathione column)
In the case of B1, the binding result is given as “binds”.
